Reference: patent publication US20180201654A1 (UNIVERSITY OF SOUTHERN CALIFORNIA, published 2018)

Experiments:
[1] = biological target: T1, HAUSP TRAF domain (HAUSP^62-205) (human, UniProt Q93009 62-205); experiment: ITC, titration against the HAUSP TRAF domain, 20 C
T1 construct: also called TRAF-like domain of HAUSP

[2] = biological target: T2, HAUSP (Herpes virus-associated ubiquitin-specific protease), full length (human, UniProt Q93009 1-1102); experiment: co-immunoprecipitation from transfected 293T cells, IP: V5, IB: Flag
T2 construct: also called USP7; Flag-HAUSP
T2 sequence (Q93009 whole entry): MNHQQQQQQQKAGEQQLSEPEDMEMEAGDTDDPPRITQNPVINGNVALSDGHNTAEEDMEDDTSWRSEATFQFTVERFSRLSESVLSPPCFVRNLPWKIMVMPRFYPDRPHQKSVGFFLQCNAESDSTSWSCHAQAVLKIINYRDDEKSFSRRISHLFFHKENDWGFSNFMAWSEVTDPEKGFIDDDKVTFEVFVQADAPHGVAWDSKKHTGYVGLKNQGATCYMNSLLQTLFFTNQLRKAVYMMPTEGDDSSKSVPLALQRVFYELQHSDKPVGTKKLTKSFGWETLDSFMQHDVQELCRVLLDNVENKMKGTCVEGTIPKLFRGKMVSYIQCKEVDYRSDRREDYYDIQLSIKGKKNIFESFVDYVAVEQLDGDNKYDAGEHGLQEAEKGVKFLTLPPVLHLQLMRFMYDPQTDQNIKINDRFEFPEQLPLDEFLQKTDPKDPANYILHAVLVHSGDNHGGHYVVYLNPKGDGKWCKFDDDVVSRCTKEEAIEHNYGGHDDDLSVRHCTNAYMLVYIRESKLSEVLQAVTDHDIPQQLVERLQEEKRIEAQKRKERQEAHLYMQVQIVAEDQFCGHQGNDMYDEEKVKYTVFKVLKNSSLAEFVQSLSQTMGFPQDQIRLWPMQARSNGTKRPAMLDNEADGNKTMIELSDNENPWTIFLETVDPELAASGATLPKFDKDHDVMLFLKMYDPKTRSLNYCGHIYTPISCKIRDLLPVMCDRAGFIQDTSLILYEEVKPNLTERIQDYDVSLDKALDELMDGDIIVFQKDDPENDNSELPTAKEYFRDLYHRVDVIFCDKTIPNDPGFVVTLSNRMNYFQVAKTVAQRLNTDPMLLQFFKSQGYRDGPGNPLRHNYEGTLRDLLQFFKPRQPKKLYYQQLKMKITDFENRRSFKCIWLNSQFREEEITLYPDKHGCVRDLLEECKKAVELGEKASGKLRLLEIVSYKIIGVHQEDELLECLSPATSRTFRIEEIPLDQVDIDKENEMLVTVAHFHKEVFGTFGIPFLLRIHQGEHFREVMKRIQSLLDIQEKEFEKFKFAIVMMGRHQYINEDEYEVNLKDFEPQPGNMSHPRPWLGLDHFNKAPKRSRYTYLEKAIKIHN

[3] = biological target: T2, HAUSP (Herpes virus-associated …); experiment: as above; remark: listed apart in the source
[4] = biological target: T2, HAUSP (Herpes virus-associated …); experiment: GST pulldown from transfected cells, immunoblot with anti-HAUSP antibody
[5] = biological target: T2, HAUSP (Herpes virus-associated …); experiment: GST pulldown from transfected 293T cells, IB: Flag

T1 sequence (Q93009 62-205): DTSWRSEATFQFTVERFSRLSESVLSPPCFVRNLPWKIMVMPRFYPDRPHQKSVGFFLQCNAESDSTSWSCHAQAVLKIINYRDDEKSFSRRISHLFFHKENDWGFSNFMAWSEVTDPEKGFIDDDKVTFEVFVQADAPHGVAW

B1: vIRF4^153-216 (other)
chain: SDTREQSYEEAGAAAPAPPKAPSGLRGRPRKSNRYYNVGDITTEQKAACSVWIPVNEGASTSGM
With B1 the Ka [1] was 1.84e+06 M⁻¹, the Kd [1] was 540 nM and the TΔS [1] was -7.35 kcal/mol. For the same binder, the n [1] was 0.82, the ΔG [1] was -8.41 kcal/mol and the ΔH [1] was -15.8 kcal/mol.

B2: V5/vIRF4 1-305 (other)
single chain: MPKAGGSEWATLWIIDALENNKFPYFSWFDRNNLLFAAPAPLPAGSDIPPGWYSVYHAFDEECDRVYGPSPVVGQTVYGRFGRLLRGTRRAVVRNDLRYSDTFGGSYVVWQLVRTPFKNCTYCYGAAYGPEKLQRFIQCLLSPPMQTTATRRSDTREQSYEEAGAAAPAPPKAPSGLRGRPRKSNRYYNVGDITTEQKAACSVWIPVNEGASTSGMGSSGTRQVTQASSFTWRVPGDPPAPSTLTGPSDPHSSGAGLPGTAPPKPQHETRLAGTVSGVSGVAQTPGDTGQLAPPMRDGSRLPSTS
B2: binds [2].

B3: vIRF4 (Kaposi's-sarcoma-associated-herpesvirus vIRF4), full length wild type (other)
chain: MPKAGGSEWATLWIIDALENNKFPYFSWFDRNNLLFAAPAPLPAGSDIPPGWYSVYHAFDEECDRVYGPSPVVGQTVYGRFGRLLRGTRRAVVRNDLRYSDTFGGSYVVWQLVRTPFKNCTYCYGAAYGPEKLQRFIQCLLSPPMQTTATRRSDTREQSYEEAGAAAPAPPKAPSGLRGRPRKSNRYYNVGDITTEQKAACSVWIPVNEGASTSGMGSSGTRQVTQASSFTWRVPGDPPAPSTLTGPSDPHSSGAGLPGTAPPKPQHETRLAGTVSGVSGVAQTPGDTGQLAPPMRDGSRLPSTSPWIPACFPWGDLPVTGWWPQGASGLPEKVHPPTTGQFDPLSPRWTYTGIPSSQLNPAAPSWIPPHAQAGTFVGEFSQGAPLAPQGLLPQSGQCASAWLPRRETGAEGACGASTEGRAPQGAASERVYPFEPQPPSAPAPGYAKPSCYNWSPLAEPPATRPIRAPVWHPPVGHAVVPEVRTPLWIPWSSGGAPNQGLSHTQGGASATPSAGAPPTPEVAERQEPSSSGIPYVCQGDNMATGYRRVTTSSGALEVEIIDLTGDSDTPSTTVASTPLPVSGPRVFQPTVLYSAPEPAVNPEVSHLPTELERRECVCPGSGERPRVPLVSTYAGDRYAVGGYGPEQSLVPPPLGLPLTLSNLQGEDICTWEEGLGNILSELQEEPSSSTRQATDRRRPRSRSPHGRRTPVSHSGPEKPPSKMFFDPPDSQRVSFVVEIFVYGNLRGTLRREGDAGEAMLCSWPVGDTLGHLCQSFVPELLRIPRLTVPSPEQMEILNRVFEGLGHGFPIFCSMSGIYSRNATQVEGWWFGNPNSRYERILRSFSPRVPQQLFNTARYLATTAAIPQTPLSVNPVTCGTVFFGASPASTENFQNVPLTVKIFIGSIWDSLH
B3: binds [3].

B4: GST-vIRF4^202-256 (other)
chain: SVWIPVNEGASTSGMGSSGTRQVTQASSFTWRVPGDPPAPSTLTGPSDPHSSGAG
notes: not shown: GST tag of the pEBG-GST vector
B4: binds [4].

B5: GST-vIRF4 153-305 (other)
single chain: SDTREQSYEEAGAAAPAPPKAPSGLRGRPRKSNRYYNVGDITTEQKAACSVWIPVNEGASTSGMGSSGTRQVTQASSFTWRVPGDPPAPSTLTGPSDPHSSGAGLPGTAPPKPQHETRLAGTVSGVSGVAQTPGDTGQLAPPMRDGSRLPSTS
B5: binds [5].

B6: GST-vIRF4^220-236 (other)
chain: GTRQVTQASSFTWRVPG
notes: as for B4
B6: binds [4].

B7: GST-vIRF4 1-153 (other)
single chain: MPKAGGSEWATLWIIDALENNKFPYFSWFDRNNLLFAAPAPLPAGSDIPPGWYSVYHAFDEECDRVYGPSPVVGQTVYGRFGRLLRGTRRAVVRNDLRYSDTFGGSYVVWQLVRTPFKNCTYCYGAAYGPEKLQRFIQCLLSPPMQTTATRRS
B7: no binding [5].

B8: V5/vIRF4 1-454 (other)
single chain: MPKAGGSEWATLWIIDALENNKFPYFSWFDRNNLLFAAPAPLPAGSDIPPGWYSVYHAFDEECDRVYGPSPVVGQTVYGRFGRLLRGTRRAVVRNDLRYSDTFGGSYVVWQLVRTPFKNCTYCYGAAYGPEKLQRFIQCLLSPPMQTTATRRSDTREQSYEEAGAAAPAPPKAPSGLRGRPRKSNRYYNVGDITTEQKAACSVWIPVNEGASTSGMGSSGTRQVTQASSFTWRVPGDPPAPSTLTGPSDPHSSGAGLPGTAPPKPQHETRLAGTVSGVSGVAQTPGDTGQLAPPMRDGSRLPSTSPWIPACFPWGDLPVTGWWPQGASGLPEKVHPPTTGQFDPLSPRWTYTGIPSSQLNPAAPSWIPPHAQAGTFVGEFSQGAPLAPQGLLPQSGQCASAWLPRRETGAEGACGASTEGRAPQGAASERVYPFEPQPPSAPAPGYAKPSCYNW
B8: binds [2].

B9: V5/vIRF4 1-758 (other)
single chain: MPKAGGSEWATLWIIDALENNKFPYFSWFDRNNLLFAAPAPLPAGSDIPPGWYSVYHAFDEECDRVYGPSPVVGQTVYGRFGRLLRGTRRAVVRNDLRYSDTFGGSYVVWQLVRTPFKNCTYCYGAAYGPEKLQRFIQCLLSPPMQTTATRRSDTREQSYEEAGAAAPAPPKAPSGLRGRPRKSNRYYNVGDITTEQKAACSVWIPVNEGASTSGMGSSGTRQVTQASSFTWRVPGDPPAPSTLTGPSDPHSSGAGLPGTAPPKPQHETRLAGTVSGVSGVAQTPGDTGQLAPPMRDGSRLPSTSPWIPACFPWGDLPVTGWWPQGASGLPEKVHPPTTGQFDPLSPRWTYTGIPSSQLNPAAPSWIPPHAQAGTFVGEFSQGAPLAPQGLLPQSGQCASAWLPRRETGAEGACGASTEGRAPQGAASERVYPFEPQPPSAPAPGYAKPSCYNWSPLAEPPATRPIRAPVWHPPVGHAVVPEVRTPLWIPWSSGGAPNQGLSHTQGGASATPSAGAPPTPEVAERQEPSSSGIPYVCQGDNMATGYRRVTTSSGALEVEIIDLTGDSDTPSTTVASTPLPVSGPRVFQPTVLYSAPEPAVNPEVSHLPTELERRECVCPGSGERPRVPLVSTYAGDRYAVGGYGPEQSLVPPPLGLPLTLSNLQGEDICTWEEGLGNILSELQEEPSSSTRQATDRRRPRSRSPHGRRTPVSHSGPEKPPSKMFFDPPDSQRVSFVVEIFVYGNLRGTLRREGDAGEA
B9: binds [2].

B10: V5/vIRF4 1-605 (other)
single chain: MPKAGGSEWATLWIIDALENNKFPYFSWFDRNNLLFAAPAPLPAGSDIPPGWYSVYHAFDEECDRVYGPSPVVGQTVYGRFGRLLRGTRRAVVRNDLRYSDTFGGSYVVWQLVRTPFKNCTYCYGAAYGPEKLQRFIQCLLSPPMQTTATRRSDTREQSYEEAGAAAPAPPKAPSGLRGRPRKSNRYYNVGDITTEQKAACSVWIPVNEGASTSGMGSSGTRQVTQASSFTWRVPGDPPAPSTLTGPSDPHSSGAGLPGTAPPKPQHETRLAGTVSGVSGVAQTPGDTGQLAPPMRDGSRLPSTSPWIPACFPWGDLPVTGWWPQGASGLPEKVHPPTTGQFDPLSPRWTYTGIPSSQLNPAAPSWIPPHAQAGTFVGEFSQGAPLAPQGLLPQSGQCASAWLPRRETGAEGACGASTEGRAPQGAASERVYPFEPQPPSAPAPGYAKPSCYNWSPLAEPPATRPIRAPVWHPPVGHAVVPEVRTPLWIPWSSGGAPNQGLSHTQGGASATPSAGAPPTPEVAERQEPSSSGIPYVCQGDNMATGYRRVTTSSGALEVEIIDLTGDSDTPSTTVASTPLPVSGPRVFQPTVLYSAPEPAVNPEVS
B10: binds [2].
